From the nanobody polyreactivity screen of Harvey et al. (2022)

Experiment: yeast display, Sf9 membrane polyspecificity reagent, FACS + sequencing; frameworks hold sequencing errors
Procedure, shortened: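 Polyreactivity labels are assigned by the sorting gate from which each nanobody was recovered. The gates were low and high (top ~1%), set on anti-HA fluorescence for expression and streptavidin fluorescence for reagent binding. Before sorting, galactose-induced (36–48 hours) yeast display cells were stained for 1 hour at 4 °C with 10% biotinylated, detergent-solubilized Sf9 membrane reagent.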

Sequence | polyreactivity (PSR sort gate)
QVQLVESGGGLVQAGGSLRLSCAASGFIFSQYAMGWYRQAPGKERELVAAISYRGGSTYYADSVKGRFTISRDNAKNTVYLQMNSLKPEDTAVYYCNAGRRSQTYLGTCDYWGQGTQVTVSS | high polyreactivity
QVQLVESGGGLVQAGGSLRLSCAASGFIFSRNAMGWYRQAPGNERDLVAAISLRGGSTYYTDSVKGRFTISRDNAKNTVYLQMISLKPEDTAVYYCAAVSGRYLTRDGYWGQGTQVTVSS | high polyreactivity
QVQLVESGGGLVQAGGSLRLSCAASGFIFSRYAKGWSRPAPGKERELVAAITRGGGDTYYADSVKGRFTISRDNAKNTVYLQMNSLKPEDTAVYYCNARYRRYTTRFGAMDYWGQGTQVTVSS | high polyreactivity
QVQLVESGGGLVQAGGSLRLSCAASGFIFSRYAMGCYSPAPGKVIELVAAISSRGGSTYYADSVKGRFTISRDNAKNTVYLQMNSLKPEDTAVYYCAARGPTFGVDYGYWGQGTQVTLSS | high polyreactivity
QVQLVESGGGLVQAGGSLRLSCAASGFIFSRYAMGWYRQAPGKERELGATINTNGGSTYYAYSVKGRFTISRDNAKNTVYLQMNSLKPEDTAVYYCNAKYQALQRSWGRYDYWGQGTQVTVSS | low polyreactivity
QVQLVESGGGLVQAGGSLRLSCAASGFIFSRYAMGWYRQAPGKERELVAAITSGGGTYSADSVKGRFTISRDNAKNTVYLQMNSLKPEDTAVYYCAAGYGPTSTSSVRITAGDHWGQGTQVTVSS | low polyreactivity
QVQLVESGGGLVQAGGSLRLSCAASGFIFSRYAMGWYRQAPGKERELVASISWGGGSTSYADSVKGRFTISRDNAKNTVYLQMNSLKPEDTAVYYCNARVRSHRFNYWGQGTQVTVSS | high polyreactivity
QVQLVESGGGLVQAGGSLRLSCAASGFIFSRYVMGWYRQAPGKERELVAAISSSGGRTYYADSVKGRFTISRDNAKNTVYLQMNCLKPEDTAVYYCAAKPLPGGADTTSPRYDYWGQGTQVTVSS | high polyreactivity
QVQLVESGGGLVQAGGSLRLSCAASGFIFSSIAMGWYRPAPGKEREFVAAITSGGITYYADSLKGRFTISRDNAKNTVYLQMNSLKPEDTAVYYCAAVLSYQTPKYYRWRYGYWGQGTQVTVSS | low polyreactivity
QVQLVESGGGLVQAGGSLRLSCAASGFIFSSNAMGWYRQAPGKEREFVAAISFRGGTTYYADSVKGRFTISRDNAKNTVYLQMKSLKPEDTAVYYCNAVRWRSGRWWWYDYWGQGTQVTVSS | low polyreactivity
QVQLVESGGGLVQAGGSLRLSCAASGFIFSSNAMGWYRQAPGKERELVARITWSDGSTYYADSVKGRFTISRDNAKNTVYLQMNSLKPEDTAVYYCAKGRDATHYEYYLYSMDYWGQGTQVTVSS | low polyreactivity
QVQLVESGGGLVQAGGSLRLSCAASGFIFSSYALGSYRQAPGKERELVAAIDLSGDSTYYADSVKGLFTISRDNAKNTVYLQMNSVKPEDTAVYYCAAQYYDYWYDSDYWGQGTQVTVSS | high polyreactivity
QVQLVESGGGLVQAGGSLRLSCAASGFIFSSYAMGWYRQAPGKERELVAAISRSGGRTNYADSVKGRFTISRDNAKNTVYLQMNSLKPEDTAVYYCAAGRWWVYRYARYYYWGQGTQVTVSS | high polyreactivity
QVQLVESGGGLVQAGGSLRLSCAASGFIFSSYAMGWYRQAPGKERELVAAISRSGGRTYYADSVKGRFTISRDNAKNTVYLQMNSLKPEDTAVYYCAAKRWWQYYWGQGTQVTVSS | high polyreactivity
QVQLVESGGGLVQAGGSLRLSCAASGFIFSSYAMGWYRQAPGKERELVAVITRSGRRTYYADSVKGRFTISRDNAKNTVYLQMNSLKPEDTAVYYCNATLPNEVAPNDYWGQGTQVTVSS | high polyreactivity
QVQLVESGGGLVQAGGSLRLSCAASGFIFSSYGMGWYRQAPGKERELVADISGGGSTNYADSVKGRFTISRDNAKNTVYLQMNSLKPEDTAVYYCNAQLIRSAAYDYWGQGTQVTVSS | low polyreactivity
QVQLVESGGGLVQAGGSLRLSCAASGFIFSTYAMGWYRQAPGKERELVAAITNSGGSTYYADSVKGRFTISRDNAKNTVYLQMNSLKPEDTAVYYCARRRSYRDNYWGQGTQVTVSS | high polyreactivity
QVQLVESGGGLVQAGGSLRLSCAASGFIFSWYDMGWYRQAPGKERELVAAISYSGSNTYYADSVKGRFTISRDNAKNTVYLQMNSLKPEDTAVYYCAATLGSRWAIYDYWGQGTQVTVSS | high polyreactivity
QVQLVESGGGLVQAGGSLRLSCAASGFIFSYNAMGWYRQAPGKERELVATITRRGGGTTYADSVKGRFTISRDNAKNTVYLQMNSLKPEDTAGYYCNRDDNRKHSFGSVGYDYWGQGTQVTVSS | low polyreactivity
QVQLVESGGGLVQAGGSLRLSCAASGFIFSYYAMGWYRPAPGKEREFVAAISRRGGSTYYADSVKGRFTISRDNAKNTVYLQMNSLKPEDTAVFYCARRRTSTAVREHYYRDWYGYDFWGQGTQVTVSS | high polyreactivity
QVQLVESGGGLVQAGGSLRLSCAASGFIFSYYAMGWYRQAPGKERELVAAINWSGGSTYYADSVKGRFTISRDNAKNTVYLQMNSLKPEDTAVYYCAAYSSWHPYDYWGQGTQVTVSS | high polyreactivity
QVQLVESGGGLVQAGGSLRLSCAASGFIFSYYAMGWYRQAPGKERELVAAISGRGGSTYYADSVKGRFTISRDNAKNTVYLQMNSLQPEDTAVYYCAADSPWGGGYFVLYNYWGQGTQVTVSS | low polyreactivity

Sequence | polyreactivity (PSR sort gate)
QVQLVESGGGLVQAGGSLRLSCAASGFIFSYYAMGWYRQAPGKERELVAAISGSGGSTYYADSVKGRFTISRDNAKNTVYLQMNSLKPEDTAVYYCAAVSSYSRVYYWGQGTQVTVSS | high polyreactivity
QVQLVESGGGLVQAGGSLRLSCAASGFIFSYYAMGWYRQAPGKERELVAAITVTGGNTYYADSVKGRFTISRDNAKNTVYLQMNSLKPEDTAVYYCAAVVRGPGVSVYYWGQGTQVSVSS | low polyreactivity
QVQLVESGGGLVQAGGSLRLSCAASGFIFSYYAMGWYRQAPVKERELVAAISSSGGTTYADSVKGRFTISRDNAKNTFYLQMNSLKPEDTAVYYCARVQYWFYKPMYYWGQGTQVTVSS | high polyreactivity
QVQLVESGGGLVQAGGSLRLSCAASGFIFSYYTMGWYRQAPGKEWEVVAAIRSSGGSTYADSVKGRFTISRDNAKNTVYLQKNSLKPEDTAVYYCAAVQTWRWVYARDYWGQGTQVTVSS | high polyreactivity
QVQLVESGGGLVQAGGSLRLSCAASGFIFSYYVMGWYRQAPGKERELVAGISWNGGRTYYADSVKGRFTISRDNAKNTVYFQMNSLKPEDTAVYYCAKDPYSKRRASSGYDYWGQGTQVTVSS | low polyreactivity
QVQLVESGGGLVQAGGSLRLSCAASGFIFSYYVMGWYRQAPGKERELVASISARVGSTYYADSVKGRFTISRDNAKNTVYLQMNSLKPEDTAVYYCNTARVKYRWYNYWGQGTQVTVSS | high polyreactivity
QVQLVESGGGLVQAGGSLRLSCAASGFIFTDNAMGWYRQAPGKDREFVAAITYSGGSTYYADSVKGRFTISRDNAKNTVYFQMNSLKPVDTAVYYCNKDVFPAPGGVTAYEYEYWGQGTQVTVSS | low polyreactivity
QVQLVESGGGLVQAGGSLRLSCAASGFIFTDYAMGWYRQAPGKEREFVAAIDWSGGNTYYADSVKGRFTISRDNAKNTVYLLMNSLKPEDTAVYYCADSGSAREYDYWGQGTQVTVSS | low polyreactivity
QVQLVESGGGLVQAGGSLRLSCAASGFIFTGNAMGWYRQAPGKERELVAAITQSGGHTSYADSVKGRFTISRDNAKNTVYLQMNSLKPEDTAVYYCNAEYTWPYHGVRNGWFNFKYEYWGQGTQVTVSS | low polyreactivity
QVQLVESGGGLVQAGGSLRLSCAASGFIFTGYAMGWYRPAPRKERELVAAITKSGGSTYYADSVKGRFTISRDNAKNTVYLQMNSLKPEDTAVYYFNTYVWRWSKGGYWGHGTQVTVSS | high polyreactivity
QVQLVESGGGLVQAGGSLRLSCAASGFIFTGYAMGWYRQAPGKERELVAAISRRGGSTYYADSVKGRFTISRDNAKNTVYLQMNSLKPEDTAVYYCAARTRTNGFDDWGQGTQVTVSS | high polyreactivity
QVQLVESGGGLVQAGGSLRLSCAASGFIFTKYTKGWYRPAPGTERELVAAIRSDGVRTYYADSVKGRFTISRDNAKNTVYLQMNSLKPEDTAVYYCAAYKAVPHYYYWGQGTQVTVSS | high polyreactivity
QVQLVESGGGLVQAGGSLRLSCAASGFIFTKYTMGWYRQAAGKVRELVAAIDSGGNTYADSVKGRFTISRDNAKNTVYLHMNSLKPEDTAVYYCAVDGGEFSSYGYWGQGTQVTVSS | low polyreactivity
QVQLVESGGGLVQAGGSLRLSCAASGFIFTKYTMGWYRQAPGKERELVAAITGRGTSTYADSVKGRFTISRDNAKNTVYLQMNSLKPEDTAVYYCAAVGWFADFLFSDINGYYWGQGTQVTVSS | low polyreactivity
QVQLVESGGGLVQAGGSLRLSCAASGFIFTLYTMGWYRPAPGKERELVAAISGRGGYTYYADSVKGRFTISRDNAKNTVYLHMNSLKPEDTAVYYCARAAYGFRARSGGDYWGQGTQVTVSS | high polyreactivity
QVQLVESGGGLVQAGGSLRLSCAASGFIFTNYAIGWYRQAPGKVRELVATISSGGGSTYYADSVKGRFTISRDNAKNTVYLQMNSLKQEDTAVYYCAASRRITGIRYINRYEYWGQGTQVTVSS | high polyreactivity
QVQLVESGGGLVQAGGSLRLSCAASGFIFTNYAMGWYRQAPGKERELVAAITRRGGGTYYADSVKGRFTISRDNAKNTVYLQMNSLKPEDTAVYYCAKYSRLVTANDYDYWGQGTQVTVSS | high polyreactivity
QVQLVESGGGLVQAGGSLRLSCAASGFIFTPYTMGWYRQAPGKERELVAAITDGSSTYYADSVKGRFTISRDNAKNTVYLQMNSLKPEDTAVYYCNADGKPPYISWLYDYWGQGTQVTVSS | low polyreactivity
QVQLVESGGGLVQAGGSLRLSCAASGFIFTRYAMGWYRQAPGKERELVARISGGGGSTYYADSVKGRFTISRDNAKNTVYLQMNSLKPEDTAVYYCNARWYPYISRYGIEARYDYWGQGTQVTVSS | high polyreactivity
QVQLVESGGGLVQAGGSLRLSCAASGFIFTTYAMGWYRQAPGKERELVAAISSSGTTYYADSVKGRFTISRDNAKNTVYLQMNSLKPEDTAVYYCAARRQFRSYQQRLYYWGQGTQVTVSS | low polyreactivity
QVQLVESGGGLVQAGGSLRLSCAASGFIFTTYAMGWYRQAPGKERELVAAISYRTGRTFYADSVKGRFTISRDNAKNTVYLQMNSLKPEDTAVYYCAAGTIQTVTTYWWTYRIGLGYWGQGTKVTVSS | high polyreactivity
